Measured values from patent publication US20220112288A1 (published 2022).

Target: T1, Rhesus macaque CD4-HIS (Acro Biosystems, Cat. CD4-C52H7) (rhesus macaque, UniProt P16003 26-390)
T1 construct: Bought recombinant protein; also called Rhesus CD4; rhesus CD4-HIS; not shown: His tag
Experiment: BLI (Octet Red384); purified antibody captured on anti-mouse IgG Fc (AMC) sensors, rhesus CD4-HIS analyte at 100, 50, 25 nM; global 1:1 fit

T1 sequence (P16003 26-390 limits assumed): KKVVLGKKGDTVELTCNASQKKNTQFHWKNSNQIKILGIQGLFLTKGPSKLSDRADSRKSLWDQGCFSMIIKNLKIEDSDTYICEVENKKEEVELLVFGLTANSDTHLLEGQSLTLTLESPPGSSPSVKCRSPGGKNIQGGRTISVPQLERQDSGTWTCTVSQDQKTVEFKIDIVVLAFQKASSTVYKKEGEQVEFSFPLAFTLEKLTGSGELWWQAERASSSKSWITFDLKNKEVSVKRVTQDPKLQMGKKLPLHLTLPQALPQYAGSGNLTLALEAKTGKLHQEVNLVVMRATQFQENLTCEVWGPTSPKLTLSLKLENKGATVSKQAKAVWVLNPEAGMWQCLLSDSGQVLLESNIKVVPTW

Kd: 8.8 nM | koff: 0.00066 s⁻¹ | kon: 75000 M⁻¹ s⁻¹
B1: 75110_14P08A (antibody, V domains shown)
VH: QVQLQESGPGLVKSSETLSLTCTDSGDSIRSYYWNWIRQPAGKGLEWIGRIYASGSTNYNPSLKSRVIMSADTSKNRFSLKLSSVTAADTAVYYCARDGGVGDSLDYWGQGTLVTVSS
VL: DIVMTQTPLSLPVTPGEPASISCRSSQSLLDSDDGNTYLDWYLQKPGQSPQLLIYTLSYRASGVPDRFSGSGSGTDFTLKISRVEAEDVGVYYCMQRIEFPFTFGPGTKVDIK
notes: Tested as antibody purified from the AlivaMab Mouse hybridoma supernatant (chimeric AlivaMab; captured by anti-mouse IgG Fc sensors, human kappa light chain); also called ADS75110 purified AMM Ab 75110_14P08A; Sib8.2
